Source: patent US20220017591A1 (AstraZeneca / MedImmune, published 2022)
Changes are numbered by the printed parent chain.

T1: mouse RXFP1 (mouse, UniProt Q6R6I7 1-758)
T1 sequence (looked up): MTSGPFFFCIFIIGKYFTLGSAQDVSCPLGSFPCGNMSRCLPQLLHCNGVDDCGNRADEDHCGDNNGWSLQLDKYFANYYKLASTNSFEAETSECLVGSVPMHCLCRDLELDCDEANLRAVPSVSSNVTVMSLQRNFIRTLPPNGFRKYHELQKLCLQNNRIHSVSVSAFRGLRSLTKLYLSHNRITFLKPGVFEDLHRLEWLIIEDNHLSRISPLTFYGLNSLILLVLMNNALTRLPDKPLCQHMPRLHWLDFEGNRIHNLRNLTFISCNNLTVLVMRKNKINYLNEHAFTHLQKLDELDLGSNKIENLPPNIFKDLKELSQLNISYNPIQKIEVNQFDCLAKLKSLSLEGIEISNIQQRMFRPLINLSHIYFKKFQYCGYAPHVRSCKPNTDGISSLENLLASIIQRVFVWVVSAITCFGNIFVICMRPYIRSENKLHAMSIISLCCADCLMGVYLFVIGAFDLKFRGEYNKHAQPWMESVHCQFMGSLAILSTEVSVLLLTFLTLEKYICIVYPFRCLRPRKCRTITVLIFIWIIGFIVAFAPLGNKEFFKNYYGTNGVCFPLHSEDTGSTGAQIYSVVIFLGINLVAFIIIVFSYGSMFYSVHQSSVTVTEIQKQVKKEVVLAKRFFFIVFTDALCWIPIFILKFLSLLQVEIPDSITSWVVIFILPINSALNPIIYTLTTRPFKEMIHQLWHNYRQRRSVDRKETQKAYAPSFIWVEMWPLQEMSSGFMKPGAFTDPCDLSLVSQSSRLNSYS

T2: human RXFP1 (human, UniProt Q9HBX9 1-757)
T2 sequence (looked up): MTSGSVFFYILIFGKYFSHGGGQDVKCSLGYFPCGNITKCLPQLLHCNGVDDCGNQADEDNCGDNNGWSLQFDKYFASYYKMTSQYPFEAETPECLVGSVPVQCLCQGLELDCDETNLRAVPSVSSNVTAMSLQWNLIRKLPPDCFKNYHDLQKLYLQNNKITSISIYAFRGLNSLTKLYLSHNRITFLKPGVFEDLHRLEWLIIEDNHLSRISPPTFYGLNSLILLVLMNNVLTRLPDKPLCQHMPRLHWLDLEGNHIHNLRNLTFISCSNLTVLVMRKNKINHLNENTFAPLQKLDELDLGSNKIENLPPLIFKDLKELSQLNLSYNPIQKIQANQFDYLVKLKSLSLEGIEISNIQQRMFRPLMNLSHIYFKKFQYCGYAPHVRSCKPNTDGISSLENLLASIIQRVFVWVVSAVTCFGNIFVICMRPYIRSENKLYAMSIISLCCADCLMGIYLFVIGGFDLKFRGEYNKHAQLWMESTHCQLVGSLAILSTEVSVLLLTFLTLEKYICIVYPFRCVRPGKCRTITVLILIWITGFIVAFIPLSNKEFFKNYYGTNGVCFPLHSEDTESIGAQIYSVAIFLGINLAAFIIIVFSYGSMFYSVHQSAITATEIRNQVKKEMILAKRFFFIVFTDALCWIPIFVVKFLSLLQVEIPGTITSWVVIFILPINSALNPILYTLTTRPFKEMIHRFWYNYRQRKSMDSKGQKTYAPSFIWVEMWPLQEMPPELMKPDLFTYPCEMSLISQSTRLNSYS

B1: RELAX0056 (Fc fusion)
chain 1: DKTHTCPPCPAPEFEGGPSVFLFPPKPKDTLMISRTPEVTCVVVDVSHEDPEVKFNWYVDGVEVHNAKTKPREEQYNSTYRVVSVLTVLHQDWLNGKEYKCKVSNKALPASIEKTISKAKGQPREPQVYTLPPCREEMTKNQVSLWCLVKGFYPSDIAVEWESNGQPENNYKTTPPVLDSDGSFFLYSKLTVDKSRWQQGNVFSCSVMHEALHNHYTQKSLSLSPGAPAPAPAPAPAPAPAPAPAGSQLYSALANKCCHVGCTKRSLARFC
chain 2: DKTHTCPPCPAPEFEGGPSVFLFPPKPKDTLMISRTPEVTCVVVDVSHEDPEVKFNWYVDGVEVHNAKTKPREEQYNSTYRVVSVLTVLHQDWLNGKEYKCKVSNKALPASIEKTISKAKGQPREPQVCTLPPSREEMTKNQVSLSCAVKGFYPSDIAVEWESNGQPENNYKTTPPVLDSDGSFFLVSKLTVDKSRWQQGNVFSCSVMHEALHNHYTQKSLSLSPGAPAPAPAPAPAPAPAPAPAGSSWMEEVIKLCGRELVRAQIAICGMSTWS
B2: RELAX0081 (Fc fusion)
chain 1: DKTHTCPPCPAPEFEGGPSVFLFPPKPKDTLMISRTPEVTCVVVDVSHEDPEVKFNWYVDGVEVHNAKTKPREEQYNSTYRVVSVLTVLHQDWLNGKEYKCKVSNKALPASIEKTISKAKGQPREPQVYTLPPCREEMTKNQVSLWCLVKGFYPSDIAVEWESNGQPENNYKTTPPVLDSDGSFFLYSKLTVDKSRWQQGNVFSCSVMHEALHNHYTQKSLSLSPGGGGGSGGGGSGGGGGSQLYSALANKCCHVGCTKRSLARFC
chain 2: DKTHTCPPCPAPEFEGGPSVFLFPPKPKDTLMISRTPEVTCVVVDVSHEDPEVKFNWYVDGVEVHNAKTKPREEQYNSTYRVVSVLTVLHQDWLNGKEYKCKVSNKALPASIEKTISKAKGQPREPQVCTLPPSREEMTKNQVSLSCAVKGFYPSDIAVEWESNGQPENNYKTTPPVLDSDGSFFLVSKLTVDKSRWQQGNVFSCSVMHEALHNHYTQKSLSLSPGGGGGSGGGGSGGGGGSSWMEEVIKLCGRELVRAQIAICGMSTWS
B3: RELAX0109 (Fc fusion)
chain 1: B2 chain 1
chain 2: DKTHTCPPCPAPEFEGGPSVFLFPPKPKDTLMISRTPEVTCVVVDVSHEDPEVKFNWYVDGVEVHNAKTKPREEQYNSTYRVVSVLTVLHQDWLNGKEYKCKVSNKALPASIEKTISKAKGQPREPQVYTLPPCREEMTKNQVSLWCLVKGFYPSDIAVEWESNGQPENNYKTTPPVLDSDGSFFLYSKLTVDKSRWQQGNVFSCSVMHEALHNHYTQKSLSLSPGAAPAPAPAPAPAPAGSSWMEEVIKLCGRELVRAQIAICGMSTWS
B4: RELAX0082 (Fc fusion)
chain 1: DKTHTCPPCPAPEFEGGPSVFLFPPKPKDTLMISRTPEVTCVVVDVSHEDPEVKFNWYVDGVEVHNAKTKPREEQYNSTYRVVSVLTVLHQDWLNGKEYKCKVSNKALPASIEKTISKAKGQPREPQVYTLPPCREEMTKNQVSLWCLVKGFYPSDIAVEWESNGQPENNYKTTPPVLDSDGSFFLYSKLTVDKSRWQQGNVFSCSVMHEALHNHYTQKSLSLSPGGGGGSGGGGGSQLYSALANKCCHVGCTKRSLARFC
chain 2: DKTHTCPPCPAPEFEGGPSVFLFPPKPKDTLMISRTPEVTCVVVDVSHEDPEVKFNWYVDGVEVHNAKTKPREEQYNSTYRVVSVLTVLHQDWLNGKEYKCKVSNKALPASIEKTISKAKGQPREPQVCTLPPSREEMTKNQVSLSCAVKGFYPSDIAVEWESNGQPENNYKTTPPVLDSDGSFFLVSKLTVDKSRWQQGNVFSCSVMHEALHNHYTQKSLSLSPGGGGGSGGGGGSSWMEEVIKLCGRELVRAQIAICGMSTWS
B5: RELAX0055 (Fc fusion)
chain 1: B4 chain 1 with G227A, G228P, G229A, G230P, S231A, G232P, G233A, G234P, G235A
chain 2: B4 chain 2 with G227A, G228P, G229A, G230P, S231A, G232P, G233A, G234P, G235A
B6: RELAX0054 (Fc fusion)
chain 1: DKTHTCPPCPAPEFEGGPSVFLFPPKPKDTLMISRTPEVTCVVVDVSHEDPEVKFNWYVDGVEVHNAKTKPREEQYNSTYRVVSVLTVLHQDWLNGKEYKCKVSNKALPASIEKTISKAKGQPREPQVCTLPPSREEMTKNQVSLSCAVKGFYPSDIAVEWESNGQPENNYKTTPPVLDSDGSFFLVSKLTVDKSRWQQGNVFSCSVMHEALHNHYTQKSLSLSPGAAPAPAPAPAPAPAGSQLYSALANKCCHVGCTKRSLARFC
chain 2: B3 chain 2
B7: RELAX0083 (Fc fusion)
chain 1: DKTHTCPPCPAPEFEGGPSVFLFPPKPKDTLMISRTPEVTCVVVDVSHEDPEVKFNWYVDGVEVHNAKTKPREEQYNSTYRVVSVLTVLHQDWLNGKEYKCKVSNKALPASIEKTISKAKGQPREPQVYTLPPCREEMTKNQVSLWCLVKGFYPSDIAVEWESNGQPENNYKTTPPVLDSDGSFFLYSKLTVDKSRWQQGNVFSCSVMHEALHNHYTQKSLSLSPGGGGGGSQLYSALANKCCHVGCTKRSLARFC
chain 2: DKTHTCPPCPAPEFEGGPSVFLFPPKPKDTLMISRTPEVTCVVVDVSHEDPEVKFNWYVDGVEVHNAKTKPREEQYNSTYRVVSVLTVLHQDWLNGKEYKCKVSNKALPASIEKTISKAKGQPREPQVCTLPPSREEMTKNQVSLSCAVKGFYPSDIAVEWESNGQPENNYKTTPPVLDSDGSFFLVSKLTVDKSRWQQGNVFSCSVMHEALHNHYTQKSLSLSPGGGGGGSSWMEEVIKLCGRELVRAQIAICGMSTWS

What was measured:
Assay in all cases: cell-based or functional assay
mouse RXFP1 = biological target: T1, mouse RXFP1
human RXFP2 = human RXFP2 (human, UniProt Q8WXD0 1-754)
Chain of human RXFP2 (Q8WXD0 whole entry): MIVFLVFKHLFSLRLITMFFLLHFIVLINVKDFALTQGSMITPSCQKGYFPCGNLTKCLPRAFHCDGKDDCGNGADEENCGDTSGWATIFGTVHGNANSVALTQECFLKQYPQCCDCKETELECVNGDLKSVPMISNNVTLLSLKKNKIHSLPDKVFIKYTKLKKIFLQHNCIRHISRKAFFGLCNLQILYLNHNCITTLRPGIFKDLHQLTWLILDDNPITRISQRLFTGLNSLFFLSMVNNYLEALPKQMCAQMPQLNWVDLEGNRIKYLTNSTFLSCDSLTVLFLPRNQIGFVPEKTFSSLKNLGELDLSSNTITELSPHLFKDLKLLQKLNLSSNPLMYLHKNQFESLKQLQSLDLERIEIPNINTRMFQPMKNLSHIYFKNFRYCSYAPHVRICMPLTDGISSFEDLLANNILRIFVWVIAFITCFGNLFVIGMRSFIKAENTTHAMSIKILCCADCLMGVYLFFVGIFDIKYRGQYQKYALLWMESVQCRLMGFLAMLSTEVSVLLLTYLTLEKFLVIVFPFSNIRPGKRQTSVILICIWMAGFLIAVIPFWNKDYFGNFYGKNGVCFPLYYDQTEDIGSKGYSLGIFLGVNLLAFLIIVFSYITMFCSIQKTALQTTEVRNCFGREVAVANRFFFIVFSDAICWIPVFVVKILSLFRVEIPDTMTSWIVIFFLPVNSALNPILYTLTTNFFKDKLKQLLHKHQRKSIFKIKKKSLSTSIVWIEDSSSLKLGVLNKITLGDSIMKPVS

human RXFP1 = biological target: T2, human RXFP1

Row | Binder | EC50 mRXFP1 (M), cAMP assay (mouse RXFP1) [M] | EC50 hRXFP2 (M), cAMP assay (human RXFP2) [M] | EC50 hRXFP1 (M), cAMP assay (human RXFP1) [M]
1 | B1 | 3.27e-11 | 6.48e-08 | 3.87e-11
2 | B2 | 4.73e-11 | 4.92e-08 | 4.51e-11
3 | B3 | 8.22e-10 | – | 1.72e-09
4 | B4 | 4.9e-11 | 3.81e-08 | 5.68e-11
5 | B5 | 1.51e-11 | 3.39e-08 | 1.88e-11
6 | B6 | 1.59e-11 | 1.53e-08 | 2.89e-11
7 | B7 | 1.34e-11 | 2.42e-08 | 2.81e-11
